According to the supplement of paper PMC10724198:
± gives the standard deviation of the averaged measurements.

Key:
[1] = tested on: Saccharomyces cerevisiae; experiment: protein stability index of tFT-peptide fusion (C-terminal peptide) (PSI (0-1 scale)); higher = more stable (slower turnover)
Method: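 MPS profiling in S. cerevisiae of the tFT-X12 degron library: putative degron peptides plus stable controls, 12 aa, fused to the C-terminus of a sfGFP-mCherry timer. Cells are FACS-sorted into 8 mCherry/sfGFP bins and deep-sequenced. PSI runs from 0 (unstable) to 1 (stable). Backgrounds are wild type, das1Δ and doa10Δ at 30 °C, and wild type, das1Δ, cdc34-1 and cdc53-1 at 37 °C; 2-3 technical replicates each.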

[2] = tested on: Saccharomyces cerevisiae; experiment: as above; settings: genetic background: wild type; temperature: 30 C
[3] = genetic background: cdc34-1, temperature: 37 C
[4] = genetic background: cdc53-1, temperature: 37 C
[5] = genetic background: das1 deletion, temperature: 30 C
[6] = genetic background: das1 deletion, temperature: 37 C
[7] = genetic background: doa10 deletion, temperature: 30 C
[8] = genetic background: wild type, temperature: 30 C
[9] = genetic background: wild type, temperature: 37 C
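Note: PSI is a weighted mean of sequencing reads over stability bins, variants kept only with over 10 reads, mCherry proximal and sfGFP distal, peptide attached via GGGS linker.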

Sequence | protein stability index [1, 3] | protein stability index [1, 4] | protein stability index [1, 5] | protein stability index [1, 6] | protein stability index [1, 7] | protein stability index [1, 8] | protein stability index [1, 9] | protein stability index [2]
CGSFWVNVLCAV | 0.402 ± 0.01 | 0.422 ± 0.018 | 0.334 ± 0.035 | 0.497 ± 0.01 | 0.2657 ± 0.0011 | 0.299 ± 0.034 | 0.444 ± 0.0067 | 0.402 ± 0.013
SRARIRLPRILS | 0.648 ± 0.033 | 0.71 ± 0.0083 | 0.661 ± 0.026 | 0.72403 ± 0.00037 | 0.208 ± 0.0047 | 0.225 ± 0.052 | 0.494 ± 0.015 | 0.333 ± 0.024
LCLICLFLLKVL | 0.477 ± 0.049 | 0.548 ± 0.048 | 0.395 ± 0.03 | 0.586 ± 0.0076 | 0.18 ± 0.018 | 0.201 ± 0.032 | 0.299 ± 0.017 | 0.337 ± 0.022
FTLFFVASVLDL | 0.48 ± 0.021 | 0.518 ± 0.01 | 0.378 ± 0.03 | 0.53241 ± 0.00048 | 0.358 ± 0.007 | 0.386 ± 0.026 | 0.511 ± 0.011 | 0.446 ± 0.0073
FGGYLRAGVFLT | 0.643 ± 0.032 | 0.6969 ± 0.0015 | 0.645 ± 0.027 | 0.721 ± 0.0034 | 0.388 ± 0.039 | 0.387 ± 0.043 | 0.586 ± 0.016 | 0.473 ± 0.11
GVYFIGISRCVC | 0.559 ± 0.006 | 0.642 ± 0.037 | 0.529 ± 0.029 | 0.669 ± 0.0011 | 0.175 ± 0.018 | 0.208 ± 0.025 | 0.36 ± 0.015 | 0.307 ± 0.0065
RFLPYLPTPLSP | 0.664 ± 0.026 | 0.7203 ± 0.0043 | 0.506 ± 0.016 | 0.5974 ± 0.0048 | 0.502 ± 0.016 | 0.513 ± 0.014 | 0.568 ± 0.011 | 0.52 ± 0.031
YCILGSYRLCVG | 0.337 ± 0.037 | 0.434 ± 0.073 | 0.259 ± 0.033 | 0.447 ± 0.018 | 0.2321 ± 0.00024 | 0.252 ± 0.033 | 0.427 ± 0.012 | 0.36 ± 0.0049
YLFFVCLHLKAG | 0.233 ± 0.03 | 0.335 ± 0.018 | 0.227 ± 0.031 | 0.417 ± 0.013 | 0.174 ± 0.0063 | 0.206 ± 0.018 | 0.3494 ± 0.00053 | 0.302 ± 0.044
WDEVVAIVVCPV | 0.436 ± 0.016 | 0.421 ± 0.0076 | 0.293 ± 0.036 | 0.493 ± 0.012 | 0.242 ± 0.0082 | 0.3 ± 0.016 | 0.457 ± 0.015 | 0.39 ± 0.023
PLSPTNLSRLLS | 0.658 ± 0.034 | 0.7642 ± 0.0043 | 0.651 ± 0.012 | 0.744 ± 0.0077 | 0.1987 ± 0.0011 | 0.234 ± 0.037 | 0.526 ± 0.033 | 0.339 ± 0.015
LGSYVWVFVYFW | 0.159 ± 0.022 | 0.258 ± 0.0054 | 0.155 ± 0.039 | 0.323 ± 0.01 | 0.148 ± 0.0054 | 0.151 ± 0.028 | 0.267 ± 0.025 | 0.187 ± 0.051
SFIFFVSCFFIF | 0.274 ± 0.043 | 0.378 ± 0.011 | 0.294 ± 0.029 | 0.451 ± 0.024 | 0.263 ± 0.0092 | 0.266 ± 0.017 | 0.416 ± 0.016 | 0.3325 ± 0.0024
VGGGGRFWVCVG | 0.657 ± 0.03 | 0.73937 ± 0.00061 | 0.629 ± 0.0064 | 0.737 ± 0.011 | 0.2122 ± 0.0019 | 0.237 ± 0.025 | 0.552 ± 0.031 | 0.406 ± 0.04
CRGLSWRMITCL | 0.493 ± 0.035 | 0.59 ± 0.049 | 0.484 ± 0.016 | 0.6459 ± 0.00088 | 0.125 ± 0.011 | 0.14 ± 0.015 | 0.176 ± 0.02 | 0.225 ± 0.012
QVLISLYVHGYF | 0.551 ± 0.053 | 0.5374 ± 0.0037 | 0.453 ± 0.047 | 0.51 ± 0.017 | 0.388 ± 0.011 | 0.426 ± 0.02 | 0.519 ± 0.019 | 0.501 ± 0.008
FLCIFFFFLISF | 0.25 ± 0.012 | 0.194 ± 0.0028 | 0.261 ± 0.027 | 0.32 ± 0.004 | 0.346 ± 0.023 | 0.235 ± 0.035 | 0.297 ± 0.02 | 0.27 ± 0.011
FLPSLSLPLLLF | 0.555 ± 0.0068 | 0.549 ± 0.02 | 0.425 ± 0.035 | 0.573 ± 0.015 | 0.376 ± 0.036 | 0.346 ± 0.017 | 0.479 ± 0.018 | 0.4318 ± 0.0012
LSPLSPLLFRLI | 0.482 ± 0.04 | 0.509 ± 0.012 | 0.516 ± 0.055 | 0.62 ± 0.018 | 0.249 ± 0.0059 | 0.226 ± 0.013 | 0.37479 ± 6.6e-05 | 0.296 ± 0.016
QHRAIKIEIKIN | 0.439 ± 0.024 | 0.666 ± 0.018 | 0.571 ± 0.048 | 0.672 ± 0.02 | 0.0613 ± 0.035 | 0.0582 ± 0.013 | 0.0578 ± 0.011 | 0.091 ± 0.0089

Sequence | protein stability index [1, 3] | protein stability index [1, 4] | protein stability index [1, 5] | protein stability index [1, 6] | protein stability index [1, 7] | protein stability index [1, 8] | protein stability index [1, 9] | protein stability index [2]
PLPSFLYFILLR | 0.22 ± 0.062 | 0.196 ± 0.024 | 0.333 ± 0.03 | 0.396 ± 0.024 | 0.524 ± 0.035 | 0.357 ± 0.012 | 0.359 ± 0.044 | 0.44 ± 0.079
SYFASLLDLFTA | 0.727 ± 0.062 | 0.77 ± 0.0079 | 0.66 ± 0.011 | 0.766 ± 0.018 | 0.669 ± 0.018 | 0.674 ± 0.012 | 0.759 ± 0.021 | 0.598 ± 0.16
LFLSAFFYLLVW | 0.199 ± 0.0028 | 0.2233 ± 0.0014 | 0.245 ± 0.029 | 0.341 ± 0.0047 | 0.277 ± 0.0047 | 0.238 ± 0.014 | 0.3077 ± 0.002 | 0.284 ± 0.039
LLSFYFVLAYMV | 0.357 ± 0.034 | 0.393 ± 0.026 | 0.32 ± 0.035 | 0.4765 ± 0.00078 | 0.197 ± 0.024 | 0.179 ± 0.02 | 0.3 ± 0.0065 | 0.28 ± 0.056
KRMVEKNKKKIN | 0.57 ± 0.063 | 0.747 ± 0.087 | 0.613 ± 0.029 | 0.729 ± 0.024 | 0.153 ± 0.024 | 0.201 ± 0.037 | 0.368 ± 0.012 | 0.31 ± 0.036
LDLPFESGIACF | 0.32 ± 0.035 | 0.297 ± 0.0081 | 0.259 ± 0.032 | 0.436 ± 0.027 | 0.209 ± 0.02 | 0.263 ± 0.029 | 0.397 ± 0.015 | 0.361 ± 0.0063
AAVQVCVLLLLL | 0.366 ± 0.029 | 0.476 ± 0.032 | 0.341 ± 0.037 | 0.521 ± 0.014 | 0.302 ± 0.0072 | 0.337 ± 0.017 | 0.497 ± 0.014 | 0.414 ± 0.0057
LCIFFWFSSFFL | 0.471 ± 0.028 | 0.561 ± 0.018 | 0.4 ± 0.021 | 0.5337 ± 0.0052 | 0.401 ± 0.0067 | 0.389 ± 0.019 | 0.505 ± 0.012 | 0.493 ± 0.015
CFVRCFVSIRLF | 0.109 ± 0.041 | 0.167 ± 0.0043 | 0.163 ± 0.019 | 0.3093 ± 0.0021 | 0.0737 ± 0.012 | 0.0716 ± 0.026 | 0.146 ± 0.015 | 0.133 ± 0.034
RSFNVGLELLVW | 0.382 ± 0.026 | 0.395 ± 0.035 | 0.295 ± 0.05 | 0.449 ± 0.0063 | 0.259 ± 0.0039 | 0.297 ± 0.046 | 0.4159 ± 0.001 | 0.398 ± 0.0062
GWWCGIGVAVSV | 0.432 ± 0.039 | 0.461 ± 0.039 | 0.337 ± 0.03 | 0.5114 ± 0.0051 | 0.292 ± 0.0069 | 0.339 ± 0.027 | 0.477 ± 0.01 | 0.464 ± 0.015
FHLFIRRSAVIF | 0.493 ± 0.023 | 0.576 ± 0.0062 | 0.455 ± 0.017 | 0.555 ± 0.023 | 0.3488 ± 0.0019 | 0.351 ± 0.033 | 0.458 ± 0.0063 | 0.439 ± 0.025
LFHSIPRLLLLK | 0.0746 ± 0.013 | 0.0485 ± 0.0081 | 0.23 ± 0.087 | 0.27 ± 0.04 | 0.627 ± 0.0064 | 0.241 ± 0.033 | 0.218 ± 0.041 | 0.367 ± 0.053
LFFFRLFVFWVF | 0.195 ± 0.034 | 0.173 ± 0.037 | 0.238 ± 0.021 | 0.369 ± 0.01 | 0.173 ± 0.014 | 0.157 ± 0.023 | 0.251 ± 0.0066 | 0.203 ± 0.0063
SSLTFTFAILLY | 0.19 ± 0.026 | 0.188 ± 0.011 | 0.207 ± 0.025 | 0.339 ± 0.015 | 0.369 ± 0.018 | 0.219 ± 0.025 | 0.312 ± 0.052 | 0.339 ± 0.011
LGGVEDRWRTAT | 0.653 ± 0.05 | 0.704 ± 0.0094 | 0.693 ± 0.032 | 0.7227 ± 0.0051 | 0.261 ± 0.016 | 0.296 ± 0.025 | 0.534 ± 0.008 | 0.365 ± 0.0037
SLVVMGSLWLRI | 0.275 ± 0.15 | 0.162 ± 0.093 | 0.346 ± 0.081 | 0.463 ± 0.024 | 0.468 ± 0.052 | 0.314 ± 0.077 | 0.425 ± 0.07 | 0.415 ± 0.0096
RIVSGVVLLVFV | 0.404 ± 0.0079 | 0.469 ± 0.0074 | 0.237 ± 0.019 | 0.5234 ± 0.0034 | 0.206 ± 0.015 | 0.226 ± 0.042 | 0.527 ± 0.034 | 0.336 ± 0.035
IQICLNRLRLFH | 0.654 ± 0.024 | 0.7 ± 0.01 | 0.63 ± 0.016 | 0.7002 ± 0.0018 | 0.251 ± 0.016 | 0.305 ± 0.02 | 0.573 ± 0.043 | 0.4361 ± 0.0038
